B1: recombinant caspase 8 (Calbiochem) (protein)
chain: SESQTLDKVYQMKSKPRGYCLIINNHNFAKAREKVPKLHSIRDRNGTHLDAGALTTTFEELHFEIKPHDDCTVEQIYEILKIYQLMDHSNMDCFICCILSHGDKGIIYGTDGQEAPIYELTSQFTGLKCPSLAGKPKVFFIQACQGDNYQKGIPVETDSEEQPYLEMDLSSPQTRYIPDEADFLLGMATVNNCVSYRNPAEGTWYIQSLCQSLRERCPRGDDILTILTEVNYEVSNKDDKKNMGKQMPQPTFTLRKKLVFPSD
B2: recombinant caspase 9 (Calbiochem) (protein)
chain: MDEADRRLLRRCRLRLVEELQVDQLWDALLSRELFRPHMIEDIQRAGSGSRRDQARQLIIDLETRGSQALPLFISCLEDTGQDMLASFLRTNRQAAKLSKPTLENLTPVVLRPEIRKPEVLRPETPRPVDIGSGGFGDVGALESLRGNADLAYILSMEPCGHCLIINNVNFCRESGLRTRTGSNIDCEKLRRRFSSLHFMVEVKGDLTAKKMVLALLELAQQDHGALDCCVVVILSHGCQASHLQFPGAVYGTDGCPVSVEKIVNIFNGTSCPSLGGKPKLFFIQACGGEQKDHGFEVASTSPEDESPGSNPEPDATPFQEGLRTFDQLDAISSLPTPSDIFVSYSTFPGFVSWRDPKSGSWYVETLDDIFEQWAHSEDLQSLLLRVANAVSVKGIYKQMPGCFNFLRKKLFFKTS
B3: recombinant caspase 10 (Calbiochem) (protein)
chain: VKTFLEALPQESWQNKHAGSNGNRATNGAPSLVSRGMQGASANTLNSETSTKRAAVYRMNRNHRGLCVIVNNHSFTSLKDRQGTHKDAEILSHVFQWLGFTVHIHNNVTKVEMEMVLQKQKCNPAHADGDCFVFCILTHGRFGAVYSSDEALIPIREIMSHFTALQCPRLAEKPKLFFIQACQGEEIQPSVSIEADALNPEQAPTSLQDSIPAEADFLLGLATVPGYVSFRHVEEGSWYIQSLCNHLKKLVPRMLKFLEKTMEIRGRKRTVWGAKQISATSLPTAISAQTPRPPMRRWSSVS
B4: recombinant caspase 1 (Calbiochem) (protein)
chain: NPAMPTSSGSEGNVKLCSLEEAQRIWKQKSAEIYPIMDKSSRTRLALIICNEEFDSIPRRTGAEVDITGMTMLLQNLGYSVDVKKNLTASDMTTELEAFAHRPEHKTSDSTFLVFMSHGIREGICGKKHSEQVPDILQLNAIFNMLNTKNCPSLKDKPKVIIIQACRGDSPGVVWFKDSVGVSGNLSLPTTEEFEDDAIKKAHIEKDFIAFCSSTPDNVSWRHPTMGSVFIGRLIEHMQEYACSCDVEEIFRKVRFSFEQPDGRAQMPTTERVTLTRCFYLFPGH
B5: recombinant caspase 2 (Calbiochem) (protein)
chain: GPVCLQVKPCTPEFYQTHFQLAYRLQSRPRGLALVLSNVHFTGEKELEFRSGGDVDHSTLVTLFKLLGYDVHVLCDQTAQEMQEKLQNFAQLPAHRVTDSCIVALLSHGVEGAIYGVDGKLLQLQEVFQLFDNANCPSLQNKPKMFFIQACRGDETDRGVDQQDGKNHAGSPGCEESDAGKEKLPKMRLPTRSDMICGYACLKGTAAMRNTKRGSWYIEALAQVFSERACDMHVADMLVKVNALIKDREGYAPGTEFHRCKEMSEYCSTLCRHLYLFPGHPPT
B6: recombinant caspase 3 (Calbiochem) (protein)
chain: SGISLDNSYKMDYPEMGLCIIINNKNFHKSTGMTSRSGTDVDAANLRETFRNLKYEVRNKNDLTREEIVELMRDVSKEDHSKRSSFVCVLLSHGEEGIIFGTNGPVDLKKITNFFRGDRCRSLTGKPKLFIIQACRGTELDCGIETDSGVDDDMACHKIPVEADFLYAYSTAPGYYSWRNSKDGSWFIQSLCAMLKQYADKLEFMHILTRVNRKVATEFESFSFDATFHAKKQIPCIVSMLTKELYFYH
B7: recombinant caspase 6 (Calbiochem) (protein)
chain: AFYKREMFDPAEKYKMDHRRRGIALIFNHERFFWHLTLPERRGTCADRDNLTRRFSDLGFEVKCFNDLKAEELLLKIHEVSTVSHADADCFVCVFLSHGEGNHIYAYDAKIEIQTLTGLFKGDKCHSLVGKPKIFIIQACRGNQHDVPVIPLDVVDNQTEKLDTNITEVDAASVYTLPAGADFLMCYSVAEGYYSHRETVNGSWYIQDLCEMLGKYGSSLEFTELLTLVNRKVSQRRVDFCKDPSAIGKKQVPCFASMLTKKLHFFPKSN
B8: recombinant caspase 7 (Calbiochem) (protein)
chain: AKPDRSSFVPSLFSKKKKNVTMRSIKTTRDRVPTYQYNMNFEKLGKCIIINNKNFDKVTGMGVRNGTDKDAEALFKCFRSLGFDVIVYNDCSCAKMQDLLKKASEEDHTNAACFACILLSHGEENVIYGKDGVTPIKDLTAHFRGDRCKTLLEKPKLFFIQACRGTELDDGIQADSGPINDTDANPRYKIPVEADFLFAYSTVPGYYSWRSPGRGSWFVQALCSILEEHGKDLEIMQILTRVNDRVARHFESQSDDPHFHEKKQIPCVVSMLTKELYFSQ

How the values were obtained:
[1] = molecular target: HA-tagged human eIF5A1 (wild type), in vitro translated from pHM6-HA-A1
[2] = molecular target: HA-tagged human eIF5A1D6E/K50R, in vitro translated from pHM6-HA-A1(D6E/K50R)
[3] = molecular target: HA-tagged human eIF5A1D6E, in vitro translated from pHM6-HA-A1(D6E)

| Protein | in vitro cleavage of the biotin-labelled translation product by recombinant caspase (SDS-PAGE, Streptavidin-HRP) [1] | in vitro cleavage of the biotin-labelled translation product by recombinant caspase (SDS-PAGE, Streptavidin-HRP) [2] | in vitro cleavage of the biotin-labelled translation product by recombinant caspase (SDS-PAGE, Streptavidin-HRP) [3] |
| --- | --- | --- | --- |
| B1 | The wild-type eIF5A1 is cleaved by caspases 2, 3, 6, 7, 8, 9, and 10 | HA-tagged eIF5A1D6E and eIF5A1D6E/K50R are effectively cleaved in vitro by caspases 3, 7 and 8 | HA-tagged eIF5A1D6E and eIF5A1D6E/K50R are effectively cleaved in vitro by caspases 3, 7 and 8 |
| B2 | The wild-type eIF5A1 is cleaved by caspases 2, 3, 6, 7, 8, 9, and 10 | are not efficiently cleaved by caspases 9 and 10 | are not efficiently cleaved by caspases 9 and 10 |
| B3 | The wild-type eIF5A1 is cleaved by caspases 2, 3, 6, 7, 8, 9, and 10 | are not efficiently cleaved by caspases 9 and 10 | are not efficiently cleaved by caspases 9 and 10 |
| B4 | The wild-type eIF5A1 is cleaved by caspases 2, 3, 6, 7, 8, 9, and 10 but not by caspase 1 | – | – |
| B5 | The wild-type eIF5A1 is cleaved by caspases 2, 3, 6, 7, 8, 9, and 10 | – | – |
| B6 | The wild-type eIF5A1 is cleaved by caspases 2, 3, 6, 7, 8, 9, and 10 | – | – |
| B7 | The wild-type eIF5A1 is cleaved by caspases 2, 3, 6, 7, 8, 9, and 10 | – | – |
| B8 | The wild-type eIF5A1 is cleaved by caspases 2, 3, 6, 7, 8, 9, and 10 | – | – |

— patent US20100076062
